First the molecules themselves.
B1: Pseudomonas putida WCS358 PupR cytoplasmic anti-sigma domain (PupR-ASD), wild type (domain or fragment)
chain: GAMGMNGQGATSIPGEVAEQAMHWHLELQEPAVSAATLAACMSWRQAHPLHEHAWQRTQVFAQRLREMRSPGQRPLAHAALRPQQS
B2: PupR-ASD L22D (domain or fragment, Pseudomonas putida WCS358)
chain: GAMGMNGQGATSIPGEVAEQAMHWHDELQEPAVSAATLAACMSWRQAHPLHEHAWQRTQVFAQRLREMRSPGQRPLAHAALRPQQS
B3: PupR-ASD M38D (domain or fragment, Pseudomonas putida WCS358)
chain: GAMGMNGQGATSIPGEVAEQAMHWHLELQEPAVSAATLAACDSWRQAHPLHEHAWQRTQVFAQRLREMRSPGQRPLAHAALRPQQS
B4: PupR-ASD F57D (domain or fragment, Pseudomonas putida WCS358)
chain: GAMGMNGQGATSIPGEVAEQAMHWHLELQEPAVSAATLAACMSWRQAHPLHEHAWQRTQVDAQRLREMRSPGQRPLAHAALRPQQS
B5: PupR-ASD Q42D (domain or fragment, Pseudomonas putida WCS358)
chain: GAMGMNGQGATSIPGEVAEQAMHWHLELQEPAVSAATLAACMSWRDAHPLHEHAWQRTQVFAQRLREMRSPGQRPLAHAALRPQQS
B6: PupR-ASD R53D (domain or fragment, Pseudomonas putida WCS358)
chain: GAMGMNGQGATSIPGEVAEQAMHWHLELQEPAVSAATLAACMSWRQAHPLHEHAWQDTQVFAQRLREMRSPGQRPLAHAALRPQQS
B7: PupR-ASD L61D (domain or fragment, Pseudomonas putida WCS358)
chain: GAMGMNGQGATSIPGEVAEQAMHWHLELQEPAVSAATLAACMSWRQAHPLHEHAWQRTQVFAQRDREMRSPGQRPLAHAALRPQQS
B8: PupR-ASD M18D (domain or fragment, Pseudomonas putida WCS358)
chain: GAMGMNGQGATSIPGEVAEQADHWHLELQEPAVSAATLAACMSWRQAHPLHEHAWQRTQVFAQRLREMRSPGQRPLAHAALRPQQS
B9: PupR-ASD A35D (domain or fragment, Pseudomonas putida WCS358)
chain: GAMGMNGQGATSIPGEVAEQAMHWHLELQEPAVSAATLDACMSWRQAHPLHEHAWQRTQVFAQRLREMRSPGQRPLAHAALRPQQS

Bounds are passed on as bounds.

Broadly, the Kd is the free concentration of one partner at which half of the binding sites on the other are occupied at equilibrium, for simple one-to-one binding. Higher therefore signals lower affinity. One may read the stoichiometry N as a count of units in the complex or per binding partner.

The first series concerns the molecule itself. Briefly: AUC.
In turn, B1 yielded a Kd of 10.2 µM. On to B2, for which the dissociation constant Kd is greater than 200 µM.

B3 gave a Kd of 11.6 µM. In other words, the double-digit micromolar range. Still for that read-out and setting: then B4, with greater than 200 µM; and B5, with 18.2 µM; and B6, with 562 µM. On the same count and under the same terms, then B7, with greater than 500 µM. The same measure, in the same setting: for B8 the value was 226 µM; for B9, 13.5 µM.

A further series deals with the molecule itself. As to the kind of experiment: SEC. A general note: SEC sorts molecules by how far they enter the pores of the column.
In the case of B1, the “stoichiometry N” value worked out at 2.

The record behind these values is PMC4701049 (Biochemistry, 2015).
